Bridge positions count the residues as written; N and C are the ends. Square brackets hold non-standard residues; d marks the D form. Ends that are not written are not given here. * marks the point of attachment. Acetyl(2-(4-imidazolyl)) = O=C(Cc1c[nH]cn1)*; Aib = CC(C)(N)C(=O)O

Test in all cases: cell-based or functional assay
In assay [1] the target is human GCG receptor (human, UniProt P47871 26-477).
In assay [2] the target is human GLP-1 receptor (human, UniProt P43220 24-463).
In assay [3] the target is T1, human GIP receptor (human, UniProt P48546 22-466).
T1 sequence (looked up): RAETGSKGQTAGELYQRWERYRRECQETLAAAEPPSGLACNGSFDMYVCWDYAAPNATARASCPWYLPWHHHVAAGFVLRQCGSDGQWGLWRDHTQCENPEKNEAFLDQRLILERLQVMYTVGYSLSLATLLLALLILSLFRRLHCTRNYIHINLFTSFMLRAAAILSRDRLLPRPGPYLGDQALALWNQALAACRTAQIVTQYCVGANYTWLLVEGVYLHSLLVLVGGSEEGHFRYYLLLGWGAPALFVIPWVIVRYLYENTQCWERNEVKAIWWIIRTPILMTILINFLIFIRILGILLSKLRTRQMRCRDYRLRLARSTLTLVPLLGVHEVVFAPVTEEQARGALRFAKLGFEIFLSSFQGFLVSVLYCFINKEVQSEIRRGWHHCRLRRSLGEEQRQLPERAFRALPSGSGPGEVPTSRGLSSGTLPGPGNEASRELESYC

Sequence of human GCG receptor (P47871 26-477): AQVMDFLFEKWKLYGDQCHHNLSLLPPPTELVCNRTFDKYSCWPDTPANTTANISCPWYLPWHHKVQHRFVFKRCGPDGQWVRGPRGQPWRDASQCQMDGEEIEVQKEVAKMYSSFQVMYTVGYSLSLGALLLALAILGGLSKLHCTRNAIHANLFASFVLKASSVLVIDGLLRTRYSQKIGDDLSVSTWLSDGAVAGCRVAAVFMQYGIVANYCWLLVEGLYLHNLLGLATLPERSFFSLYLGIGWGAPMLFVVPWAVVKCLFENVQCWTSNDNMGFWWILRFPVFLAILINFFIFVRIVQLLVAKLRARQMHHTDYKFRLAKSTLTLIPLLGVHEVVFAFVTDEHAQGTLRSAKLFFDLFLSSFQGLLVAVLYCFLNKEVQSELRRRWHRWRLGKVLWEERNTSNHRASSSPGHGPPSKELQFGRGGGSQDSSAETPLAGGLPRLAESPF

Regarding HGQGTFTSDCSKQLDGQAAQEFVAWLLAGGPSSGAPPPS [triple agonist of SEQ ID NO: 44], the “In vitro activity (%) compared with native peptide, vs Glucagon” value (“In vitro activity (%) … vs Glucagon” below) in assay [1] was under 0.1%. Also, in assay [2], the “In vitro activity (%) compared with native peptide, vs GLP-1” value (from here on “In vitro activity (%) … vs GLP-1”) came out at 1.3%. Further, the “In vitro activity (%) compared with native peptide, vs GIP” value (shortened to “In vitro activity (%) … vs GIP”) in assay [3] was under 0.1%.
For the molecule HGQGTFTSDCSKYLDEQHAQEFVAWLLAGGPSSGAPPPS [triple agonist of SEQ ID NO: 46], the “In vitro activity (%) … vs Glucagon” value in assay [1] was under 0.1%. Besides, the “In vitro activity (%) … vs GLP-1” value in assay [2] stood at 1.4%. Moreover, in assay [3], the “In vitro activity (%) … vs GIP” value was under 0.1%.
HGQGTFTSDCSKYLDGQRAQEFVAWLLAGGPSSGAPPPS [triple agonist of SEQ ID NO: 47]: the “In vitro activity (%) … vs Glucagon” value in assay [1] was under 0.1%. In assay [2], the “In vitro activity (%) … vs GLP-1” value was found to be 2.4%. For the same molecule, in assay [3], the “In vitro activity (%) … vs GIP” value was under 0.1%.
Take HGQGTFTSDCSKYLDGQRAQDFVNWLLAGGPSSGAPPPS [triple agonist of SEQ ID NO: 48]: the “In vitro activity (%) … vs Glucagon” value in assay [1] is under 0.1%. Besides, the “In vitro activity (%) … vs GLP-1” value in assay [2] came out at 1.5%. Also, the “In vitro activity (%) … vs GIP” value in assay [3] is under 0.1%.
As for HGQGTFTSDCSKYMDGQAAQDFVAWLLAGGPSSGAPPPS [triple agonist of SEQ ID NO: 45], the “In vitro activity (%) … vs Glucagon” value in assay [1] was under 0.1%. In addition, the “In vitro activity (%) … vs GLP-1” value in assay [2] amounted to 6.6%. Also, the “In vitro activity (%) … vs GIP” value in assay [3] is under 0.1%.
Turning to H[Aib]QGTFTSDVSSYLLGQQQKEFIAWLVKGC [triple agonist of SEQ ID NO: 4], the “In vitro activity (%) … vs Glucagon” value in assay [1] is under 0.1%. Also, the “In vitro activity (%) … vs GLP-1” value in assay [2] was 8.5%. Moreover, the “In vitro activity (%) … vs GIP” value in assay [3] is under 0.1%.
As for H[Aib]QGTFTSDVSSYLLGQQQKEFIAWLVKGGGPSSGAPPPSC [triple agonist of SEQ ID NO: 5], in assay [1], the “In vitro activity (%) … vs Glucagon” value is under 0.1%. The “In vitro activity (%) … vs GLP-1” value in assay [2] is 42.1%. Also, the “In vitro activity (%) … vs GIP” value in assay [3] was under 0.1%.
Consider [Acetyl(2-(4-imidazolyl))][Aib]QGTFTSDKSSYLDERAAQDFVQWLLDGGPSSGAPPPSS (not fully specified) [triple agonist of SEQ ID NO: 38], for which the “In vitro activity (%) … vs GLP-1” value in assay [2] was found to be 2.3%.
Take H[Aib]QGTFTSDVSSYLDGQAAKEFVAWLLKGC [triple agonist of SEQ ID NO: 6]: in assay [1], the “In vitro activity (%) … vs Glucagon” value was under 0.1%. The “In vitro activity (%) … vs GLP-1” value in assay [2] was determined as 17%. Further, the “In vitro activity (%) … vs GIP” value in assay [3] is under 0.1%.
Consider H[Aib]QGTFTSDVSSYLDGQAAKEFIAWLVKGC [triple agonist of SEQ ID NO: 1], for which the “In vitro activity (%) … vs Glucagon” value in assay [1] is under 0.1%. In addition, in assay [2], the “In vitro activity (%) … vs GLP-1” value came to 3.2%. In addition, in assay [3], the “In vitro activity (%) … vs GIP” value is under 0.1%.
Consider Y[Aib]QGTFTSDYSKYLDEKRAKEFVQWLLDHHPSSGQPPPSC (bridge 16-20) [triple agonist of SEQ ID NO: 42], for which the “In vitro activity (%) … vs Glucagon” value in assay [1] was 206%. In addition, the “In vitro activity (%) … vs GLP-1” value in assay [2] turned out to be 33.9%. Besides, in assay [3], the “In vitro activity (%) … vs GIP” value stood at 7.8%.
On the same counts, the results for H[Aib]EGTFTSDYSIAMDEIHQKDFVDWLLAEC (bridge 16-20) [triple agonist of SEQ ID NO: 54] are 1.4%, 30.6% and 0.1%.
The corresponding values for H[Aib]QGTFTSDYSKYLCEKRQKEFVQWLLNGGPSSGAPPPSG (bridge 16-20) [triple agonist of SEQ ID NO: 36] are 0.39%, 37.4% and 0.2%.
The corresponding values for [Acetyl(2-(4-imidazolyl))][Aib]QGTFTSDYSICMDEKHQKDFVNWLLNTK (bridge 16-20; not fully specified) [triple agonist of SEQ ID NO: 59] are under 0.1%, 40.3% and 4%.
As to H[Aib]QGTFTSDYSIAMDEIHQKDFVNWLLNTC (bridge 16-20) [triple agonist of SEQ ID NO: 57], the “In vitro activity (%) … vs Glucagon” value in assay [1] was under 0.1%. Besides, the “In vitro activity (%) … vs GLP-1” value in assay [2] was determined as 11.7%. In addition, the “In vitro activity (%) … vs GIP” value in assay [3] came out at 0.3%.
The corresponding values for H[Aib]QGTFTSDKSKYLDECAAQDFVQWLLDGGPSSGAPPPS (not fully specified) [triple agonist of SEQ ID NO: 41] are under 0.1%, 34.3% and under 0.1%.
The corresponding values for H[Aib]QGTFTSDYSKYLDECRQKEFVQWLLNGGPSSGAPPPSG (bridge 16-20) [triple agonist of SEQ ID NO: 37] are 6.21%, 236% and 2.2%.
On the same counts, the results for H[Aib]EGTFTSDYSIAMDEIHQKDFVNWLLAQC (bridge 16-20; not fully specified) [triple agonist of SEQ ID NO: 53] are 8.4%, 161% and 1.3%.
[Acetyl(2-(4-imidazolyl))][Aib]QGTFTSDYSICMDEIHQKDFVNWLLNTK (bridge 16-20) [triple agonist of SEQ ID NO: 49]: the “In vitro activity (%) … vs Glucagon” value in assay [1] was under 0.1%. For the same molecule, in assay [2], the “In vitro activity (%) … vs GLP-1” value was found to be 29.8%. In assay [3], the “In vitro activity (%) … vs GIP” value is 3.3%.
For the molecule H[Aib]QGTFTSDYSKYLDGQHAQCFVAWLLAGGGPSSGAPPPS [triple agonist of SEQ ID NO: 39], the “In vitro activity (%) … vs Glucagon” value in assay [1] was determined as 0.53%. For the same molecule, the “In vitro activity (%) … vs GLP-1” value in assay [2] came to 13.9%. For the same molecule, in assay [3], the “In vitro activity (%) … vs GIP” value is under 0.1%.
The corresponding values for H[Aib]QGTFTSDYSKYLDEKRQKEFVNWLLAQKC (bridge 16-20) [triple agonist of SEQ ID NO: 34] are 0.92%, 19.1% and 0.6%.
The corresponding values for H[Aib]QGTFTSDYSKYLDEKRAKEFVQWLLDHHPSSGQPPPSC (bridge 16-20) [triple agonist of SEQ ID NO: 50] are 50.5%, 67.4% and 2.7%.
The corresponding values for H[Aib]QGTFTSDKSKYLDERACQDFVQWLLDGGPSSGAPPPS (not fully specified) [triple agonist of SEQ ID NO: 40] are under 0.1%, 75.2% and under 0.1%.
Consider [Acetyl(2-(4-imidazolyl))][Aib]QGTFTSDYSIAMDEKHCKDFVNWLLNTK (bridge 16-20; not fully specified) [triple agonist of SEQ ID NO: 60], for which the “In vitro activity (%) … vs Glucagon” value in assay [1] is under 0.1%. For the same molecule, in assay [2], the “In vitro activity (%) … vs GLP-1” value is 106%. Further, the “In vitro activity (%) … vs GIP” value in assay [3] came to 8.2%.
Turning to H[Aib]QGTFTSDYSKYLDEKRQKEFVQWLLNTKC (bridge 16-20) [triple agonist of SEQ ID NO: 58], the “In vitro activity (%) … vs Glucagon” value in assay [1] was found to be 2.6%. Further, the “In vitro activity (%) … vs GLP-1” value in assay [2] turned out to be 39.1%. Moreover, in assay [3], the “In vitro activity (%) … vs GIP” value amounted to 0.2%.
On the same counts, the results for Y[Aib]QGTFTSDYSKYLDEKRAKEFVQWLLDHHCSSGQPPPS (bridge 16-20) [triple agonist of SEQ ID NO: 43] are 88.4%, 12.6% and 3.7%.
H[Aib]QGTFTSDYSIAMDEIHQKDFVNWLLAQC (bridge 16-20; not fully specified) [triple agonist of SEQ ID NO: 55]: the “In vitro activity (%) … vs Glucagon” value in assay [1] came out at 0.7%. For the same molecule, in assay [2], the “In vitro activity (%) … vs GLP-1” value was found to be 27.1%. In addition, in assay [3], the “In vitro activity (%) … vs GIP” value was 2.4%.

These data come from patent publication US20230355720A1, “PHARMACEUTICAL COMPOSITION FOR PREVENTING OR TREATING BONE DISEASES, COMPRISING TRIPLE AGONIST OR CONJUGATE THEREOF HAVING ACTIVITY WITH RESPECT TO ALL OF GLUCAGON, GLP-1 AND GLP RECEPTORS” (HANMI PHARM. CO., LTD., priority 2020, published 2023).
